Measurements published in paper PMC12770985.

Key:
[1] = target: Gerd_aPriL1, non-catalytic primase subunit PriL (Loki group) of Candidatus Gerdarchaeota archaeon B18_G1 (Candidatus Gerdarchaeota archaeon B18_G1); experiment: SPR; BIACORE, CM5 chip; Gerd_ePriL or Gerd_aPriL1 immobilised, Gerd_ePriS concentration gradient (methods; the legend of Figure 3 tells the reverse); 20 mM Hepes pH 7.5, 500 mM NaCl, 0.005% Tween 20, 30 uL/min, 25 °C
[2] = target: Gerd_ePriL, non-catalytic primase subunit PriL (Heimdall group) of Candidatus Gerdarchaeota archaeon B18_G1 (Candidatus Gerdarchaeota archaeon B18_G1); experiment: as above

Kd [1]: 105 nM
Kd [2]: 2.67 nM
Substance: Gerd_ePriS, catalytic primase subunit PriS of Candidatus Gerdarchaeota archaeon B18_G1 (enzyme)
